Data on seven molecules can be found in patent US20250163127A1.

For one test, the target named is CD28 (human) (UniProt P10747). In words: flow cytometry, Jurkat cells (endogenous CD28), 100 nM, anti-Flag. A general note: Flow cytometry measures light scatter and fluorescence of single cells or particles in a stream.
The target of a further test is human CTLA-4 (human). The test can be described thus: flow cytometry, CHO/CTLA-4 cells, 100 nM, anti-Flag.
Test [1] addresses human PD-1 (human) (UniProt Q15116). In words: flow cytometry, CHO/PD-1 cells, 100 nM, anti-Flag.
For test [2] the target is unchanged.
Test [3] shares this target. The test can be described thus: flow cytometry, Jurkat/PD-1 cells, 50 nM.
The target in another test is PD-L1 (human). The test can be described thus: flow cytometry on HEK293 cells transfected with PD-L1.
Sequence of PD-L1 (human) (chain, as listed by the source): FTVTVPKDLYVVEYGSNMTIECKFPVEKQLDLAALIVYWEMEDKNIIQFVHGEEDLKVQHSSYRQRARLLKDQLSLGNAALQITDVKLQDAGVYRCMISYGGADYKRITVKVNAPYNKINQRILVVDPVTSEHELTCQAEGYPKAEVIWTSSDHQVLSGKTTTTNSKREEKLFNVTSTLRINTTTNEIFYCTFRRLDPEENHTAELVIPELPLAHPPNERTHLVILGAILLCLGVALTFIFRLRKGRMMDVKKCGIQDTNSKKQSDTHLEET
The next test deals with CTLA-4 (human). In words: flow cytometry on HEK293 cells transfected with CTLA4.
Sequence of CTLA-4 (human) (chain, as listed by the source): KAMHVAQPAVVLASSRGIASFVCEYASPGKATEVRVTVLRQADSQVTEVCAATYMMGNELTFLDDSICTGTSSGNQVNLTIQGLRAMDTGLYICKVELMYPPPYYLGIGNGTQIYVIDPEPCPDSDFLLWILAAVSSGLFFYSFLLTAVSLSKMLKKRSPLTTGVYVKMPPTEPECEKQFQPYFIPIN
Another test addresses T1, CD226 (human) (UniProt Q15762).
T1 sequence: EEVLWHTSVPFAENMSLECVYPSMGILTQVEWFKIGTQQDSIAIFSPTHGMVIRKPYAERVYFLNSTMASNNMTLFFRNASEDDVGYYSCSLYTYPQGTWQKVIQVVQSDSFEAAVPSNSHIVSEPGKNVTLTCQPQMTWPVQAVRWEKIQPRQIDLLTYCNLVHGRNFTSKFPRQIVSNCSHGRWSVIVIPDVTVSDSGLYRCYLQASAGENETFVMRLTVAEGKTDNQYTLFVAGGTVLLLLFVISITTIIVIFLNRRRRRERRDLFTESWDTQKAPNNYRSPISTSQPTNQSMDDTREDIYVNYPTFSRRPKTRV
In words: flow cytometry, transfected HEK293 cells.

In a further test the target is T2, CD96 (human) (UniProt P40200).
T2 sequence: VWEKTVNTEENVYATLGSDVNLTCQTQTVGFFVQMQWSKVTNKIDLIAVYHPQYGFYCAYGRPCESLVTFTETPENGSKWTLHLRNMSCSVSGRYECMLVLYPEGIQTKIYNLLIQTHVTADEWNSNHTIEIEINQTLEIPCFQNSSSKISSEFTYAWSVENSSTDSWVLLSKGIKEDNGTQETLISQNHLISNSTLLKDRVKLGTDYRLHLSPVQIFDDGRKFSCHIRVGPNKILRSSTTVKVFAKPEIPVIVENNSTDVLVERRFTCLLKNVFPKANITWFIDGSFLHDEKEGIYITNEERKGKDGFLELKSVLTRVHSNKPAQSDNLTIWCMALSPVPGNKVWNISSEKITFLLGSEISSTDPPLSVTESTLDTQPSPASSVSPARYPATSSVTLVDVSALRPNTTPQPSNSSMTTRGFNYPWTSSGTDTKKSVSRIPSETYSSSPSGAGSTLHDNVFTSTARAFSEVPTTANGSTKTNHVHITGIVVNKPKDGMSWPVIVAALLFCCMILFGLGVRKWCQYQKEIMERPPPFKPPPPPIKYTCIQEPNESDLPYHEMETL
The test can be described thus: flow cytometry, transfected HEK293 cells.

Sequence of human PD-1 (human) (Q15116 25-288): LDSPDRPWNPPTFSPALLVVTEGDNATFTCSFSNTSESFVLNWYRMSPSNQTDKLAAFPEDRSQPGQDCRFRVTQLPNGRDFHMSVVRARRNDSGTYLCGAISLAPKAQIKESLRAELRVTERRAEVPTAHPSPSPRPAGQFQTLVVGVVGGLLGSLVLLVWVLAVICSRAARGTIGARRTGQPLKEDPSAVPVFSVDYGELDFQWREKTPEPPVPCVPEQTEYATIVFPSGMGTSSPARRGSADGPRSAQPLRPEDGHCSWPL

B1: ICOSL 2264 (monomeric variant ICOSL IgV N52H/N57Y/Q100R) (ligand)
chain: DTQEKEVRAMVGSDVELSCACPEGSRFDLNDVYVYWQTSESKTVVTYHIPQHSSLEYVDSRYRNRALMSPAGMLRGDFSLRLFNVTPQDEQKFHCLVLSRSLGFQEVLSVEVTLHVAANFSV
Take B1: the MFI came out at 16100 in the test with CD28 (human), 70800 with human CTLA-4 (human) and 1510 with human PD-1 (human) [1].

B2: variant PD-L2 IgV H15Q/Q72H/V89D Fc fusion (Fc fusion)
chain: LFTVTVPKELYIIEQGSNVTLECNFDTGSHVNLGAITASLQKVENDTSPHRERATLLEEQLPLGKASFHIPHVQVRDEGQYQCIIIYGDAWDYKYLTLKVKA
Regarding B2, in the test with human PD-1 (human) [2], the IFN gamma levels pg/mL (MLR) is 1270 pg/mL. This molecule returned an MFI at 50 nM with human PD-1 (human) [3] of 12600 MFI.

B3: Full length ECD of PD-L2, Fc fusion (Fc fusion)
chain: LFTVTVPKELYIIEHGSNVTLECNFDTGSHVNLGAITASLQKVENDTSPHRERATLLEEQLPLGKASFHIPQVQVRDEGQYQCIIIYGVAWDYKYLTLKVKASYRKINTHILKVPETDEVELTCQATGYPLAEVSWPNVSVPANTSHSRTPEGLYQVTSVLRLKPPPGRNFSCVFWNTHVRELTLASIDLQSQMEPRTHPT
Consider B3, for which the IFN gamma levels pg/mL (MLR) with human PD-1 (human) [2] was determined as 1170 pg/mL. Further, the MFI at 50 nM with human PD-1 (human) [3] worked out at 2140 MFI.

B4: Variant CD80 E35D/A71D Fc fusion (Table E14B) (Fc fusion)
chain: VIHVTKEVKEVATLSCGHNVSVEELAQTRIYWQKDKKMVLTMMSGDMNIWPEYKNRTIFDITNNLSIVILDLRPSDEGTYECVVLKYEKDAFKREHLAEVT
The molecule B4 showed an MFI at 22.2 nM with PD-L1 (human) of 13800 MFI. Moreover, in the test with CTLA-4 (human), the MFI at 66.6 nM came out at 150000 MFI.

B5: Variant CD80 E35G/K54E/A71D/L72P Fc fusion (Fc fusion)
chain: VIHVTKEVKEVATLSCGHNVSVEELAQTRIYWQKGKKMVLTMMSGDMNIWPEYENRTIFDITNNLSIVILDPRPSDEGTYECVVLKYEKDAFKREHLAEVT
On to B5, for which the MFI at 22.2 nM in the test with PD-L1 (human) came to 1580 MFI.

B6: variant CD155 IgV-Fc, S42L, S52Q, L104E (Fc fusion)
chain: WPPPGTGDVVVQAPTQVPGFLGDSVTLPCYLQVPNMEVTHVLQLTWARHGEQGSMAVFHQTQGPSYSESKRLEFVAARLGAELRNASLRMFGLRVEDEGNYTCEFVTFPQGSRSVDIWLRVL
As to B6, the MFI at 100 nM is 6470 with CD226 (human) and 1700 in the test with CD96 (human).

B7: variant CD155 IgV-Fc, T45Q, S52R, L104E (Fc fusion)
chain: WPPPGTGDVVVQAPTQVPGFLGDSVTLPCYLQVPNMEVTHVSQLQWARHGERGSMAVFHQTQGPSYSESKRLEFVAARLGAELRNASLRMFGLRVEDEGNYTCEFVTFPQGSRSVDIWLRVL
As to B7, the MFI at 100 nM with CD96 (human) came out at 3750.
